The target in this assay is acetylcholine receptor. In words: SPR, receptor immobilized, peptide 10 uM. (In general: SPR reads the build-up and loss of mass on a sensor chip optically.)

KKQVQK [6mer-1-199] registered a Binding affinity (RU) of 151 RU. On to RRLIRK [6mer-1-172], for which the Binding affinity (RU) worked out at 153 RU. As for KQRRRK [6mer-2-138], the Binding affinity came to 153 RU. On to KRGQYK [6mer-1-164], for which the Binding affinity (RU) is 145 RU. Turning to RKRYQK [6mer-1-178], the Binding affinity (RU) is 139 RU. RRRIQR [6mer-1-201] came in with a Binding affinity (RU) of 151 RU.

In turn, RVRRKK [6mer-2-160] displayed a Binding affinity of 121 RU. The molecule RSYRKK [6mer-2-157] had a Binding affinity of 153 RU. Molecule KRQICR [6mer-1-184] gave a Binding affinity (RU) of 139 RU. Still for that read-out and setting: under KKSLSK [6mer-1-162] stands 142 RU. In the case of KRLQTK [6mer-1-163], the Binding affinity (RU) stood at 147 RU.

Molecule RWVLRR [6mer-2-142] showed a Binding affinity of 121 RU. RRQQSK [6mer-1-169] had a Binding affinity (RU) of 153 RU. As to KWRRKK [6mer-2-161], the Binding affinity came out at 154 RU. For KWFTRR [6mer-2-165], the Binding affinity was 139 RU.

RVYSRR [6mer-2-153] displayed a Binding affinity of 124 RU.

Molecule KGQYKK [6mer-2-148] yielded a Binding affinity of 145 RU.

KSIRRK [6mer-2-144]: the Binding affinity was found to be 133 RU. In turn, RKSLQK [6mer-1-188] returned a Binding affinity (RU) of 122 RU. Molecule RQFYKR [6mer-2-152] gave a Binding affinity of 139 RU.

Molecule KGRLKK [6mer-2-140] gave a Binding affinity of 142 RU. Take RKLYYR [6mer-1-190]: the Binding affinity (RU) worked out at 153 RU. In the case of KVISKR [6mer-2-162], the Binding affinity stood at 136 RU. KKGVLR [6mer-1-181] registered a Binding affinity (RU) of 148 RU. For the molecule RKSFYR [6mer-1-170], the Binding affinity (RU) was found to be 148 RU. Molecule KKSYSK [6mer-1-189] had a Binding affinity (RU) of 137 RU. RRRVYK [6mer-1-186] came in with a Binding affinity (RU) of 147 RU. The molecule KRQLRK [6mer-1-185] showed a Binding affinity (RU) of 153 RU.

As to KRQRRK [6mer-2-164], the Binding affinity is 135 RU. Turning to KKVYCK [6mer-1-176], the Binding affinity (RU) is 121 RU. On to KRGICK [6mer-1-182], for which the Binding affinity (RU) is 147 RU.

Turning to KRGYRR [6mer-1-177], the Binding affinity (RU) turned out to be 121 RU. For KKWFTK [6mer-1-165], the Binding affinity (RU) turned out to be 148 RU.

In turn, KVFCKK [6mer-2-137] showed a Binding affinity of 135 RU. The molecule KGVYKK [6mer-2-155] gave a Binding affinity of 139 RU.

In turn, KRVTKR [6mer-2-154] gave a Binding affinity of 148 RU.

RRWYSK [6mer-1-166] came in with a Binding affinity (RU) of 148 RU. For the molecule RQYYKK [6mer-2-145], the Binding affinity was found to be 128 RU. Molecule KRWFCK [6mer-1-168] displayed a Binding affinity (RU) of 131 RU.

Turning to KQLLKR [6mer-2-146], the Binding affinity came to 135 RU.

RRRIQK [6mer-1-175] yielded a Binding affinity (RU) of 137 RU. KRVQLK [6mer-1-193]: the Binding affinity (RU) was 149 RU. The molecule KWFYRR [6mer-2-163] gave a Binding affinity of 149 RU. Consider RQYTKR [6mer-2-147], for which the Binding affinity was found to be 133 RU.

As to RKQYYR [6mer-1-173], the Binding affinity (RU) was 123 RU. On to KRILKR [6mer-2-150], for which the Binding affinity turned out to be 136 RU. As to KGLQRR [6mer-2-156], the Binding affinity was 127 RU.

As for KGQQRK [6mer-2-149], the Binding affinity turned out to be 127 RU. Consider RKQFQK [6mer-1-171], for which the Binding affinity (RU) is 123 RU. RSFLRR [6mer-2-158] showed a Binding affinity of 145 RU. With KRRYCK [6mer-1-161], the Binding affinity (RU) worked out at 139 RU. In turn, KWYQKK [6mer-2-141] registered a Binding affinity of 154 RU. Molecule RKWRRK [6mer-1-196] showed a Binding affinity (RU) of 142 RU. Molecule RWLRKR [6mer-2-166] registered a Binding affinity of 125 RU. RKWQRR [6mer-1-194]: the Binding affinity (RU) was 144 RU. The molecule KRSQYR [6mer-1-179] showed a Binding affinity (RU) of 148 RU. The same measure, in the same setting: then RKLYQR [6mer-1-200], with 142 RU.

The molecule KRGISR [6mer-1-195] came in with a Binding affinity (RU) of 122 RU. Regarding KQLRKR [6mer-2-151], the Binding affinity was found to be 142 RU. Still for that read-out and setting: under RQYYRK [6mer-2-159] stands 127 RU. Consider KKQILK [6mer-1-191], for which the Binding affinity (RU) was 139 RU. In turn, RRSIRR [6mer-1-197] gave a Binding affinity (RU) of 139 RU. For the molecule KKGQTR [6mer-1-183], the Binding affinity (RU) came to 121 RU. In turn, RRRYQR [6mer-1-167] yielded a Binding affinity (RU) of 122 RU. In the case of KLFRKK [6mer-2-139], the Binding affinity came to 149 RU. With RKLFYK [6mer-1-187], the Binding affinity (RU) is 139 RU. In turn, RRVCRR [6mer-2-143] displayed a Binding affinity of 128 RU. Turning to KRLFCR [6mer-1-198], the Binding affinity (RU) was 148 RU.

RKLVRK [6mer-1-180] gave a Binding affinity (RU) of 146 RU. Still for that read-out and setting: under KKGVCR [6mer-1-174] stands 154 RU. Take KLFQKR [6mer-2-167]: the Binding affinity is 145 RU. In turn, KRQYQR [6mer-1-192] showed a Binding affinity (RU) of 127 RU.

These data come from US20250011363A1, “OPTIMIZED SHORTENED PEPTIDE THAT BINDS TO ACETYLCHOLINE RECEPTOR, AND USE THEREOF” (SKINMED CO., LTD., priority 2021, published 2025).
